Laboratory results reported in patent US20030232742A1, “FAP-activated anti-tumor compounds” (priority 2000, published 2003).
*1 amine or outer side, *2 acyl side, *3 side chain or, on linkers, in order; H or OH if unused. Where no end group is shown, it is not given here. [ ]: non-standard residue; d: D form. The star is where a group is joined. morpholino‑(ethyloxycarbonyl) = morpholino-(ethyloxycarbonyl) N-terminal blocking group, O=C(OCCN1CCOCC1)*; NH(4-MeO-2-naphthyl) = COc1cc(N*)cc2ccccc12; Glutaryl = O=C(CCCC(=O)[*:2])[*:1]; Suc = O=C(CCC(=O)[*:2])[*:1]; 4Amb = NCc1ccc(C(=O)O)cc1; NMeA = CN[C@@H](C)C(=O)O

Assays:
FAP = biological target: T1, FAP (Homo sapiens, UniProt Q12884); test: Assay for cleavage of MNA substrates by FAP; format: biochemical; conditions: 1 ng FAP enzyme in 293 cell extract, 20 μl 2.5 mM substrate (a few diluted further), room temperature 1 hour, control 293 extract subtracted
T1 construct: Cell extract from 293 cells stably transfected with FAP prepared as described; expressed in transfected cells; detergent extract used
T1 sequence (Q12884 1-760): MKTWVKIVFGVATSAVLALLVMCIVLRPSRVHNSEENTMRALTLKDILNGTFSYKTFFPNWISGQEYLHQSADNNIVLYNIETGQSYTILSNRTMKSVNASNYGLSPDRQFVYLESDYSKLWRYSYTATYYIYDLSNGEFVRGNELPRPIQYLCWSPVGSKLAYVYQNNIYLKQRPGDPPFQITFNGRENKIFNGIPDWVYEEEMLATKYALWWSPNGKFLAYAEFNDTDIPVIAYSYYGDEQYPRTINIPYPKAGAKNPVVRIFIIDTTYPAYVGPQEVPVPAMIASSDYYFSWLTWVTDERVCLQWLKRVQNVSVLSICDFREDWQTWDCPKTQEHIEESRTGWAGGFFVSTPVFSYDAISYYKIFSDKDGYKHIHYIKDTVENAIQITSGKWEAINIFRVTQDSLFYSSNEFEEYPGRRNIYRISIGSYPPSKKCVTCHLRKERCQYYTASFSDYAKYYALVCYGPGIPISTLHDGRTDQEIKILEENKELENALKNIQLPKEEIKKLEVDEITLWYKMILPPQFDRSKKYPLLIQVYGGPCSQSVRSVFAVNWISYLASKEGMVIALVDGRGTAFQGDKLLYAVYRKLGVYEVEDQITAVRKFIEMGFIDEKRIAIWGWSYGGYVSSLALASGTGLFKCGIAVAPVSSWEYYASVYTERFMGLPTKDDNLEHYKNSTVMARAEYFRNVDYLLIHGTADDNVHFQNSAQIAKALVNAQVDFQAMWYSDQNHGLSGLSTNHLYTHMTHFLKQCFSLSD
Description: To identify preferred FAPα peptide substrates, blocked oligopeptides composed of natural amino carboxylic acids were synthesized and coupled to Proline-4-methoxy-β-napthylamine (Pro-MNA) using methods known to the art (E. Wünsch, Synthese von Peptiden, in Methoden der organischen Chemie, Houben-Weyl (Eds. E. Müller, 0. Bayer), Vol. XV, Part 1 and 2, Georg Thieme Verlag, Stuttgart, 1974). The turnover and cleavage rate have been determined with the aid pf the following assay:
Assay for Cleavage of MNA Substrates by FAP:
Cell extract from 293 cells stably transfected with FAP prepared as described (see Park, et al., Fibroblast Activation Protein, a Dual Specificity Serine Protease expressed in human tumor stromal fibroblasts. (1999) J. Biol. Chem. 36505-12.). A similar extract was also prepared from parental 293 control cells without FAP. The FAP concentration in the FAP-transfected cell extract was estimated by immunoassay and 1 ng enzyme (diluted in buffer A) was used per assay. FAP-negative 293 control cell extract was used at the same dilution (also in buffer A) as a negative control. Substrate was initially dissolved in dimethylformamide at a concentration of 200 mM and diluted in buffer A to a final concentration of 2.5 mM. A few substrates were not soluble at this concentration and had to be diluted further.
10 μl 10% DMSO in buffer A
70 μl diluted FAP cell extract containing 1 ng FAP enzyme (OR control 293 cell extract without FAP)
Mix, incubate at room temperature for 1 hour, and measure fluorescence in Fluorostar fluorimeter at the following wavelengths:
MNA conjugates: Excitation: 355 nm, Emission: 405 nm.
The fluorescence measured in the samples treated with control 293 control cell extracts without FAP is subtracted from the values measured in the samples treated with 1 ng FAP enzyme.

FAPα dimers = biological target: T2, FAPα dimers (Homo sapiens, UniProt Q12884); conditions: membrane overlay assay, WO 97/34927; cited from earlier work
T2 sequence (Q12884 1-760): T1 sequence (Q12884 1-760)

Row | Substance | % Turnover (FAP) [%] | Cleavage (FAP) [µM] | cleavage of dipeptide coumarin substrate (FAPα dimers)
1 | 3-Pyridylacetyl-Gly-Pro-MNA | 1.82 | 9.12 | 
2 | 4-Pyridylmethyloxycarbonyl-Gly-Pro-MNA | 1.18 | 5.92 | 
3 | Pyridin-3-ylmethoxycarbonyl-Pro-Ala-Gly-Pro-MNA ({pyridin‑3‑ylmethoxycarbonyl}-PAGP-{NH(4-MeO-2-naphthyl)}) | 1.77 | 8.86 | 
4 | Pyrid-3-ylmethyloxycarbonyl-MeAla-Ala-Gly-Pro-MNA ({pyrid‑3‑ylmethyloxycarbonyl}-[NMeA]AGP-{NH(4-MeO-2-naphthyl)}) [MeAla represents a N-methylalanin moiety] | 1.27 | 6.31 | 
5 | 4-Aminomethylbenzoyl-Pro-Ala-Gly-Pro-MNA ([4Amb]PAGP-{NH(4-MeO-2-naphthyl)}) | 0.24 | 1.21 | 
6 | 4-Aminomethylphenylacetyl-Pro-Ala-Gly-Pro-MNA ({4‑aminomethylphenylacetyl}-PAGP-{NH(4-MeO-2-naphthyl)}) | 0.26 | 1.28 | 
7 | Morpholino-(ethyloxycarbonyl)-Pro-Ala-Gly-Pro-MNA ({morpholino‑(ethyloxycarbonyl)}-PAGP-{NH(4-MeO-2-naphthyl)}; SMILES COc1cc(NC(=O)[C@@H]2CCCN2C(=O)CNC(=O)[C@H](C)NC(=O)[C@@H]2CCCN2C(=O)OCCN2CCOCC2)cc2ccccc12) | 0.65 | 3.25 | 
8 | Pyrid-3-ylmethyloxycarbonyl-Pip-Ala-Gly-Pro-MNA | 0.56 | 2.78 | 
9 | Gly-Pro-7-amino-4-trifluoromethyl coumarin |  |  | able to cleave
10 | Pyrid-4-ylmethyloxycarbonyl-Pip-Ala-Gly-Pro-MNA | 0.43 | 2.16 | 
11 | 3-Carboxyphenylsulfonyl-Pro-Ala-Gly-Pro-MNA ({3‑carboxyphenylsulfonyl}-PAGP-{NH(4-MeO-2-naphthyl)}) | 0.58 | 2.88 | 
12 | Prazin-2-ylcarbonyl-Pro-Ala-Gly-Pro-MNA ({pyrazin‑2‑ylcarbonyl}-PAGP-{NH(4-MeO-2-naphthyl)}) | 0.56 | 0.7 | 
13 | 4-Pyridylmethyloxycarbonyl-Pro-Ala-Gly-Pro-MNA ({4‑pyridylmethyloxycarbonyl}-PAGP-{NH(4-MeO-2-naphthyl)}) | 1.28 | 6.38 | 
14 | Lys-Pro-7-amino-4-trifluoromethyl coumarin |  |  | able to cleave
15 | Succinyl-Pro-Ala-Gly-Pro-MNA (Suc-PAGP-{NH(4-MeO-2-naphthyl)}; SMILES COc1cc(NC(=O)[C@@H]2CCCN2C(=O)CNC(=O)[C@H](C)NC(=O)[C@@H]2CCCN2C(=O)CCC(=O)O)cc2ccccc12) | 0.29 | 1.44 | 
16 | 3,5-Difluorphenylacetyl-Gly-Pro-MNA | 2.26 | 2.26 | 

Row | Substance | % Turnover (FAP) [%] | Cleavage (FAP) [µM] | cleavage of dipeptide coumarin substrate (FAPα dimers)
17 | 2-Morpholino-ethyl-Pro-Ala-Gly-Pro-MNA ({2‑morpholino‑ethyl}-PAGP-{NH(4-MeO-2-naphthyl)}) | 0.26 | 0.64 | 
18 | 3 -Pyridylmethyloxycarbonyl-Gly-Pro-MNA | 0.72 | 3.58 | 
19 | Morpholino-carbonyl-Pro-Ala-Gly-Pro-MNA ({morpholino‑carbonyl}-PAGP-{NH(4-MeO-2-naphthyl)}) | 0.6 | 2.99 | 
20 | 4-(2-Aminothiazol-5-yl)-acetyl-Pro-Ala-Gly-Pro-MNA ({(2-aminothiazol-5-yl)‑acetyl}-PAGP-{NH(4-MeO-2-naphthyl)}) | 0.39 | 1.94 | 
21 | Ala-Pro-7-amino-4-trifluoromethyl coumarin |  |  | able to cleave
22 | 4-Amino-Phenylacetyl-Gly-Pro-MNA | 0.6 | 3 | 
23 | Pyrid-3-ylmethyloxycarbonyl-2-Aze-Ala-Gly-Pro-MNA | 3.42 | 17.1 | 
24 | Glutaryl-Pro-Ala-Gly-Pro-MNA (Glutaryl-PAGP-{NH(4-MeO-2-naphthyl)}; SMILES COc1cc(NC(=O)[C@@H]2CCCN2C(=O)CNC(=O)[C@H](C)NC(=O)[C@@H]2CCCN2C(=O)CCCC(=O)O)cc2ccccc12) | 0.3 | 1.48 | 
25 | 4-Dimethylaminobenzoyl-Pro-Ala-Gly-Pro-MNA ({4‑dimethylaminobenzoyl}-PAGP-{NH(4-MeO-2-naphthyl)}) | 0.37 | 1.85 | 
26 | Malonyl-Pro-Ala-Gly-Pro-MNA (malonyl-PAGP-{NH(4-MeO-2-naphthyl)}) | 0.21 | 1.05 | 
27 | 2-Fluorphenylacetyl-Gly-Pro-MNA | 0.26 | 1.28 | 
28 | 4-Fluorphenylacetyl-Gly-Pro-MNA | 0.42 | 2.08 | 
29 | 4-Hydroxyphenylacetyl-Pro-Ala-Gly-Pro-MNA ({4‑hydroxyphenylacetyl}-PAGP-{NH(4-MeO-2-naphthyl)}) | 0.69 | 1.72 | 
30 | 1-Methylpyrrol-2-ylcarbonyl Pro-Ala-Gly-Pro-MNA ({1‑methylpyrrol‑2‑ylcarbonyl}-PAGP-{NH(4-MeO-2-naphthyl)}) | 0.13 | 0.33 | 
31 | 3-Fluorphenylacetyl-Gly-Pro-MNA | 0.35 | 1.77 | 
32 | Pyrid-4-ylmethyloxycarbonyl-2-Aze-Ala-Gly-Pro-MNA | 1.61 | 8.07 | 
